This is an account of results in paper PMC4032258, “Transmembrane Recognition of the Semaphorin Co-Receptors Neuropilin 1 and Plexin A1: Coarse-Grained Simulations” (PLoS ONE, 2014).

The data set deals with the molecule itself. In words: two-hybrid; bacterial adenylate cyclase two-hybrid (BACTH) in E. coli BTH101 (cya-); TM sequences fused to T18 and T25 fragments of CyaA behind an OmpA signal sequence; read out on MacConkey indicator plates and by beta-galactosidase activity, normalised to GpA-GpA as 100%.

B1: Neuropilin 1 transmembrane domain (NRP1 TM), BACTH fusion (domain or fragment, human)
chain: ILITIIAMSALGVLLGAVCGVVLYRKR
notes: not part of NRP1; Modified pKTN25 and pUT18 plasmids; also called NRP1 TM domain; source: bacterial two-hybrid fusion (BACTH), E. coli BTH101 (cya-), cotransformed plasmids; not shown: T25 or T18 fragment of Bordetella pertussis adenylate cyclase CyaA, C-terminal, kept
For the protein B1, the “interaction propensity (beta-galactosidase activity) relative to GpA-GpA” value is around 50%.
